The values below come from publication doi:10.1101/2021.05.09.442808 (bioRxiv, 2021).

The assay has as its target HKU1 S 2P prefusion-stabilized ectodomain trimer (HCoV-HKU1, isolate  (N5 used), UniProt Q0ZME7, stabilised). Briefly: SPR. In general terms: SPR reads the build-up and loss of mass on a sensor chip optically.

B1: S2P6 Fab fragment (Fab, V domains shown)
VH: EVQLVQSGAEVKKPGASVKVSCKASGYTFTSQYMHWVRQAPGQGLEWIGIINPSGVHTSYAQKFQGRVTLTRDTSTSTLYMELSSLRSEDTAVYYCARGSPKGAFDYWGQGTLVTVSS
VL: not shown
The term Kd denotes the equilibrium constant for the complex coming apart. Take B1: the equilibrium dissociation constant (Kd) is about 120 nM.
